# From PMC11079029, “Intramolecular autoinhibition regulates the selectivity of PRPF40A tandem WW domains for proline-rich motifs” (Nature Communications, 2024)
# Values joined by “and” are separate entries in the source; they are usually repeats but may differ in a detail not shown here. Identical values can stand only once.
# Target: T1, PRPF40A WW12 (tandem WW domains, residues 141-236) (human, UniProt O75400 141-236)
# T1 construct: pETM11 vector (NcoI/KpnI); also called PRPF40A WW tandem; isolated WW domains; source: E. coli BL21(DE3), purified (Ni-NTA, TEV cleavage, reverse Ni-NTA, SEC); not shown: His6, N-terminal, cleaved
# Assay: ITC; MicroCal PEAQ-ITC, 25 °C, 20 mM sodium phosphate pH 6.5, 100 mM NaCl; GB1-polyproline peptides in the cell, WW12 in the syringe (N sites >1: more than one WW tandem on one peptide); one-site model; apparent
# Conditions: both partners purified
row,Binder,Kd
1,"GAMSGSPPPPPPPPPPPPPSGSN (common N-terminal residues after the TEV site (TEVsite-GAMSGS-peptide-SGSN); 13 consecutive prolines; common C-terminal residues; pET24 vector with 6xHis, GB1 and TEV site as N-terminal cassette, not cleaved; also called polyproline length 13; source: E. coli BL21(DE3), purified (Ni-NTA, SEC); not shown: GB1, N-terminal, kept)",7.58 µM and 10.6 µM and 7.45 µM and 8.54 µM
2,"GAMSGSPPPPPPPPSGSN (common N-terminal residues after the TEV site (TEVsite-GAMSGS-peptide-SGSN); 8 consecutive prolines; common C-terminal residues; pET24 vector with 6xHis, GB1 and TEV site as N-terminal cassette, not cleaved; also called polyproline length 8; source: E. coli BL21(DE3), purified (Ni-NTA, SEC); not shown: GB1, N-terminal, kept) [GB1-polyproline peptide P8]",> 50 µM
3,"GAMSGSPPPPPPPPPPPPPPPPPPPPPPSGSN (common N-terminal residues after the TEV site (TEVsite-GAMSGS-peptide-SGSN); 22 consecutive prolines; common C-terminal residues; pET24 vector with 6xHis, GB1 and TEV site as N-terminal cassette, not cleaved; also called polyproline length 22; source: E. coli BL21(DE3), purified (Ni-NTA, SEC); not shown: GB1, N-terminal, kept)",8.84 µM and 9.73 µM and 9.29 µM
4,"GAMSGSPPPPPPPPPPPPPPPPPPPPPPPPPPPPPSGSN (common N-terminal residues after the TEV site (TEVsite-GAMSGS-peptide-SGSN); 29 consecutive prolines; common C-terminal residues; pET24 vector with 6xHis, GB1 and TEV site as N-terminal cassette, not cleaved; also called polyproline length 29; source: E. coli BL21(DE3), purified (Ni-NTA, SEC); not shown: GB1, N-terminal, kept)",7.3 µM and 11 µM and 9.15 µM
5,"GAMSGSPPPPPPPPPPPPPPPPPPPSGSN (common N-terminal residues after the TEV site (TEVsite-GAMSGS-peptide-SGSN); 19 consecutive prolines; common C-terminal residues; pET24 vector with 6xHis, GB1 and TEV site as N-terminal cassette, not cleaved; also called polyproline length 19; source: E. coli BL21(DE3), purified (Ni-NTA, SEC); not shown: GB1, N-terminal, kept)",7.02 µM and 6.5 µM and 6.76 µM
6,"GAMSGSPPPPPPPPPPPPPPPPPPPPPPPPPSGSN (common N-terminal residues after the TEV site (TEVsite-GAMSGS-peptide-SGSN); 25 consecutive prolines; common C-terminal residues; pET24 vector with 6xHis, GB1 and TEV site as N-terminal cassette, not cleaved; also called polyproline length 25; source: E. coli BL21(DE3), purified (Ni-NTA, SEC); not shown: GB1, N-terminal, kept)",10.5 µM and 11 µM and 10.8 µM

# Target: T2, PRPF40A WW12 (tandem WW domains, residues 141-236) (human, UniProt O75400 141-236)
# T2 construct: A few vector residues probably remain at the N-terminus after TEV cleavage (pETM11, NcoI site); 15N-labelled in the NMR experiments; also called PRPF40A WW tandem; WW12 wt; source: E. coli BL21(DE3), purified (Ni-NTA, TEV digestion, reverse Ni-NTA, SEC); not shown: His6, N-terminal, cleaved
# Assay: ITC; GB1-peptide or GB1-SF1 construct in the cell, PRPF40A WW12 in the syringe (as shown in Supplementary Figures 7 and 16A); 25 °C, 20 mM sodium phosphate pH 6.5, 100 mM NaCl; one-site binding model; at least duplicates; affinities apparent
# Conditions: both partners purified
row,Binder,Kd
1,"GB1-SF1 Pro B (residues 468-539) (domain or fragment, UniProt Q15637 468-539, looked up, splicing factor 1 (SF1), residues 468-539 of the proline-rich C-terminal region; His6-GB1-TEV site cassette of the pET24 vector, not cleaved; source: E. coli BL21(DE3), purified (Ni-NTA, SEC); not shown: GB1, N-terminal, kept) GMMPPPPMGMMPPPPPPPSGQPPPPPSGPLPPWQQQQQQPPPPPPPSSSMASSTPLPWQQNTTTTTTSAGTG",20.6 ± 4.9 µM
2,PPPPPPPPPPPPP,8.54 ± 1.46 µM
3,PPPPPPPPPPPPPPPPPPPPPP,9.29 ± 0.88 µM
4,PPPPPPPPPPPPPPPPPPPPPPPPPPPPP,9.15 ± 1.85 µM
5,"GMMYAPPPPPPPPMDPSNFVTMMGMGVAGMPPFGMPPAPPPPPPQN (domain or fragment, UniProt Q15637 594-639, looked up, splicing factor 1 (SF1), residues 594-639 of the proline-rich C-terminal region; His6-GB1-TEV site cassette of the pET24 vector, not cleaved; source: E. coli BL21(DE3), purified (Ni-NTA, SEC); not shown: GB1, N-terminal, kept) [GB1-SF1 Pro D (residues 594-639)]",10.1 ± 4.2 µM
6,PPPPPPPPPPPPPPPPPPP,6.76 ± 0.96 µM
7,TMVPLPPGVQPPLPPG [GB1-SF1 16-mer peptide 565-580],30.4 ± 6.7 µM
8,"GB1-SF1 Pro A (residues 410-468) (domain or fragment, UniProt Q15637 410-468, looked up, splicing factor 1 (SF1), residues 410-468 of the proline-rich C-terminal region; His6-GB1-TEV site cassette of the pET24 vector, not cleaved; source: E. coli BL21(DE3), purified (Ni-NTA, SEC); not shown: GB1, N-terminal, kept) GHPMQHNPNGPPPPWMQPPPPPMNQGPHPPGHHGPPPMDQYLGSTPVGSGVYRLHQGKG",25.1 ± 6.5 µM
9,"GB1-SF1 Pro C (residues 539-594) (domain or fragment, UniProt Q15637 539-594, looked up, splicing factor 1 (SF1), residues 539-594 of the proline-rich C-terminal region (holds the WWbs motif 575-590); His6-GB1-TEV site cassette of the pET24 vector, not cleaved; source: E. coli BL21(DE3), purified (Ni-NTA, SEC); not shown: GB1, N-terminal, kept) GSIPPWQQQQAAAAASPGAPQMQGNPTMVPLPPGVQPPLPPGAPPPPPPPPPGSAG",2.02 ± 0.09 µM
10,PPPPPPPPPPPPPPPPPPPPPPPPP,10.8 ± 1.8 µM
11,PPPPPPPPPPPPPPPP [GB1-polyproline peptide P16],3.35 ± 0.27 µM
